Source: article doi:10.1101/2023.07.25.550521

Assays:
[1] = molecular target: MADD (DENN/MADD, RAB3-GEP) (UniProt Q8WXG6); experiment: GFP-Trap co-IP, HA blot; settings: reference: wild type; sites T86
RAB-GDI1 = RAB-GDI1 (UniProt P31150); experiment: GFP-Trap co-IP, RAB-GDI1 blot; settings: reference: wild type; sites T86

Substance: RAB3A (from UniProt P20336) T86A
- binding against the reference [1]: stronger
- binding against the reference (RAB-GDI1): stronger
